PMC6335422 (Nature Communications, 2019)
Primed or numbered codes have the meaning given here. Where no end group is shown, it is not given here. SUMO″ = SUMO fusion tag (N-terminal); SUMO = SUMO tag, N-terminal

Legend:
Erh1 (Erh1wt) = target: T1, Erh1 (Erh1wt) (Schizosaccharomyces pombe, UniProt G2TRN4); test: Isothermal titration calorimetry (ITC), SUMO-tagged Mmi1 peptides titrated into wild-type Erh1; type: binding, S. pombe; details: for -TΔS / ΔH (binding enthalpy): Erh1wt; for ΔH (binding enthalpy): single-site model; for binding / affinity for Erh1 (in words): ITC (Supplementary Table 1; Fig. 1d, f), relative to Mmi1^95–122
T1 construct: A region of Erh1 (residues 1–104) was amplified by PCR; made in house; host or cells: Escherichia coli BL21 (Gold)
T1 sequence (G2TRN4 1-104): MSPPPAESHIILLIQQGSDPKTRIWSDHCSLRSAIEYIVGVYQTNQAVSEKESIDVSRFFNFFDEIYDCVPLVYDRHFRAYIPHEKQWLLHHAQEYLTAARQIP
Experimental: The titration protocol consisted of a single initial injection of 1 µl, followed by 19 injections of 2 µl SUMO-tagged Mmi1 peptides into the sample cell containing Erh1 protein. Thermodynamic data were analyzed with a single-site binding model using MicroCal PEAQ-ITC Analysis Software provided by the manufacturer.

[1] = target: T2, Erh1 (residues 1-104), wild type (S. pombe, UniProt G2TRN4 1-104); test: ITC; SUMO-tagged Mmi1 peptides titrated into Erh1 in the sample cell; MicroCal iTC200, 293 K; 20 mM Tris-HCl pH 7.5, 150 mM NaCl; single-site binding model; details: both partners purified
T2 construct: Erh1, S. pombe, residues 1-104, amplified from the S. pombe genome, in a modified pET28a vector without thrombin site (p28a); also called Erh1wt; Enhancer of rudimentary homolog 1; source: E. coli BL21 (Gold), purified (Ni-chelating resin, size-exclusion chromatography)
T2 sequence (looked up): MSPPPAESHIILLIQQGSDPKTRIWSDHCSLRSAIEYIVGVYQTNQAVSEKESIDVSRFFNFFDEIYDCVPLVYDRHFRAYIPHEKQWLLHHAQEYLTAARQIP

Erh1 = test: GST pull-down of Erh1 with GST-tagged Mmi1 fragments, Coomassie; type: binding, S. pombe; details: GST-Mmi1 fusion incubated with Erh1, glutathione-agarose, SDS-PAGE
From the text: Fig. 1 Mmi1 interacts with Erh1 in a 2:2 stoichiometry. a Shown is a schematic representation of the domain architecture of Mmi1. The disorder score from DISOPRED3 Server[62] and the conservation score are shown below. The conservation score is generated by a Protein Residue Conservation Prediction Server[63] from the sequence alignment of Mmi1 orthologues from S. pombe, S. cryophilus, S. octosporus, and S. japonicus. b–d Interactions of GST tagged Mmi1 peptides (GST-Mmi1) with Erh1 visualized by Coomassie blue staining. The indicated GST-Mmi1 fusion proteins or GST alone were incubated with Erh1. The complexes were collected with glutathione-agarose resin and bound proteins were eluted and then subjected to SDS-PAGE. GST or GST-Mmi1 fusion proteins without Erh1 are shown as a negative control. Source data are provided as a Source Data file. e The raw ITC titration data of Erh1 with SUMO tagged Mmi1^95–122 and its fitting curve are shown. KD dissociation constant, DP differential power, N binding stoichiometry, ΔH binding enthalpy. f ITC fitting curves of Erh1 using SUMO tagged Mmi1^95–122 (magenta), Mmi1^106–122 (blue) and Mmi1^95–111 (green) are shown. g Size-exclusion analysis of Erh1 (magenta) and Erh1-Mmi1^95–122 (blue). Marker sizes are 62.9 KDa (Albumin), 46.7 KDa (Ovalbumin), 20.3 KDa (Chymotrypsinogen), 14.6 KDa (Ribonuclease A). Also shown are theoretical monomer sizes (kDa) of Erh1 protein and Mmi1^95–122 peptide TEXT PRINTED IN THE PICTURE: (e) Mmi1^95–122 - Erh1: KD (μM) 0.83±0.19; N (sites) 0.90±0.01; ΔH (kJ per mol) −106±3.02 | (f) Mmi1^95–122: Erh1 KD (μM): 0.83±0.19 | (f) Mmi1^106–122: Erh1 KD (μM): 9.94±1.19 | (f) Mmi1^95–111: Erh1 KD (μM): no binding | (g) Erh1: 13.2 kDa | (g) Mmi1^95–122: 3.5 kDa
A region of Erh1 (residues 1–104) was amplified by PCR from the S. pombe genome and cloned into a modified pET28a (Novagen) vector without a thrombin protease cleavage site (p28a). GST-Mmi1^YTH was sub-cloned from a Mmi1^YTH-p28a construct to a modified PGex-4T1 vector with a TEV protease cleavage site (Tev4T1). […]

[2] = ITC, 293 K, 20 mM Tris-HCl pH 7.5, 150 mM NaCl, SUMO-tagged Mmi1 peptide

Molecule	-TΔS (Erh1 (Erh1wt); [2]) [kJ per mol]	ΔH (binding enthalpy) (Erh1 (Erh1wt); [2]) [kJ per mol]	Kd [1] [nM]	stoichiometry N [1]	also measured
Mmi1R119A: Mmi1 peptide mutant R119A ({SUMO}-GKYDFSRHCTDYGHSYEWPYFRSLARES; not fully specified)	13.1	-46.3±1.28	–	–	binding / affinity for Erh1 (in words) (Erh1 (Erh1wt)): reduced
Mmi1^106–122: further truncated Mmi1 fragment, residues 106–122 ({SUMO″}-YGHSYEWPYFRSLRRES; not fully specified)	45.5	-73.6±2.69	–	–	binding / affinity for Erh1 (in words) (Erh1 (Erh1wt)): decreased binding to Erh1
Mmi1Y106A: Mmi1 peptide mutant Y106A ({SUMO}-GKYDFSRHCTDAGHSYEWPYFRSLRRES; not fully specified)	11.3	-43.8±2.35	–	–	–
Mmi1S100A: Mmi1 peptide mutant S100A ({SUMO}-GKYDFARHCTDYGHSYEWPYFRSLRRES; not fully specified)	6.04	-36.0±3.16	–	–	–
Mmi1Y97A: Mmi1 peptide mutant Y97A ({SUMO}-GKADFSRHCTDYGHSYEWPYFRSLRRES; not fully specified)	13.8	-46.1±1.20	–	–	binding / affinity for Erh1 (in words) (Erh1 (Erh1wt)): reduced affinities for Erh1
Mmi1F99A: Mmi1 peptide mutant F99A ({SUMO}-GKYDASRHCTDYGHSYEWPYFRSLRRES; not fully specified)	8.86	-42.6±1.83	–	–	binding / affinity for Erh1 (in words) (Erh1 (Erh1wt)): reduced affinities for Erh1
Mmi1Y110A: Mmi1 peptide mutant Y110A ({SUMO}-GKYDFSRHCTDYGHSAEWPYFRSLRRES; not fully specified)	246	-273±20.3	–	–	–
Mmi1H108A: Mmi1 peptide mutant H108A ({SUMO}-GKYDFSRHCTDYGASYEWPYFRSLRRES; not fully specified)	-21.2	-9.97±2.43	–	–	–
Mmi1T104A: Mmi1 peptide mutant T104A ({SUMO}-GKYDFSRHCADYGHSYEWPYFRSLRRES; not fully specified)	22.8	-53.7±1.31	–	–	–
Mmi1Y114A: Mmi1 peptide mutant Y114A ({SUMO}-GKYDFSRHCTDYGHSYEWPAFRSLRRES; not fully specified)	31.1	-61.8±1.07	–	–	binding / affinity for Erh1 (in words) (Erh1 (Erh1wt)): reduced affinities for Erh1
Mmi1F115A: Mmi1 peptide mutant F115A ({SUMO}-GKYDFSRHCTDYGHSYEWPYARSLRRES; not fully specified)	35.7	-68.0±0.673	–	–	binding / affinity for Erh1 (in words) (Erh1 (Erh1wt)): reduced affinities for Erh1
Mmi1^95–111: truncated Mmi1 peptide, residues 95–111 ({SUMO″}-GKYDFSRHCTDYGHSYE; not fully specified)	–	–	–	–	binding / affinity for Erh1 (in words) (Erh1 (Erh1wt)): did not bind at all; KD (dissociation constant) (Erh1 (Erh1wt); text and figures 1e, 1f, 3e, Erh1, ITC, 293 K, 20 mM Tris-HCl pH 7.5, 150 mM NaCl, SUMO-tagged Mmi1 peptide): no binding
YGHSYEWPYFRSLRRES (domain or fragment, S. pombe, UniProt O74958 106-122, looked up, source: E. coli BL21 (Gold), purified (Ni-chelating resin, size-exclusion chromatography); not shown: SUMO, N-terminal, kept) [SUMO-tagged Mmi1 106-122]	–	–	9940 ± 1190	0.89	–
GST-tagged Mmi1^1–122: purified GST-tagged Mmi1 amino-terminal fragment, residues 1–122 (protein, UniProt O74958 1-122, looked up, fragment, GST tag) MSNTNFSTSRSSKSIPELPNLEALRSLWPPPSLNESGDTRSVWTTHTGEPVASSVLSTSGSNNFSSPLKRPAPESHDAPIGRRLMVDDPRLIKHGKYDFSRHCTDYGHSYEWPYFRSLRRES	–	–	–	–	interaction with Erh1 (GST pull-down) (Erh1): bound efficiently to Erh1
GKADFSRHCTDYGHSYEWPYFRSLRRES (domain or fragment, S. pombe, UniProt O74958 95-122, looked up, also called Mmi1 Y97A; source: E. coli BL21 (Gold), purified (Ni-chelating resin, size-exclusion chromatography); not shown: SUMO, N-terminal, kept) [SUMO-tagged Mmi1 95-122 Y97A]	–	–	1750 ± 317	1.27	–
GKYDFSRHCTDYGHSYEWPYARSLRRES (domain or fragment, S. pombe, UniProt O74958 95-122, looked up, also called Mmi1 F115A; source: E. coli BL21 (Gold), purified (Ni-chelating resin, size-exclusion chromatography); not shown: SUMO, N-terminal, kept) [SUMO-tagged Mmi1 95-122 F115A]	–	–	1800 ± 121	0.9	–
GKYDFARHCTDYGHSYEWPYFRSLRRES (domain or fragment, S. pombe, UniProt O74958 95-122, looked up, also called Mmi1 S100A; source: E. coli BL21 (Gold), purified (Ni-chelating resin, size-exclusion chromatography); not shown: SUMO, N-terminal, kept) [SUMO-tagged Mmi1 95-122 S100A]	–	–	4730 ± 1620	1.36	–
GKYDFSRHCTDYGASYEWPYFRSLRRES (domain or fragment, S. pombe, UniProt O74958 95-122, looked up, also called Mmi1 H108A; source: E. coli BL21 (Gold), purified (Ni-chelating resin, size-exclusion chromatography); not shown: SUMO, N-terminal, kept) [SUMO-tagged Mmi1 95-122 H108A]	–	–	2780 ± 2150	1.36	–
GKYDFSRHCTDYGHSYEWPAFRSLRRES (domain or fragment, S. pombe, UniProt O74958 95-122, looked up, also called Mmi1 Y114A; source: E. coli BL21 (Gold), purified (Ni-chelating resin, size-exclusion chromatography); not shown: SUMO, N-terminal, kept) [SUMO-tagged Mmi1 95-122 Y114A]	–	–	3520 ± 323	0.97	–
GKYDFSRHCTDAGHSYEWPYFRSLRRES (domain or fragment, S. pombe, UniProt O74958 95-122, looked up, also called Mmi1 Y106A; source: E. coli BL21 (Gold), purified (Ni-chelating resin, size-exclusion chromatography); not shown: SUMO, N-terminal, kept) [SUMO-tagged Mmi1 95-122 Y106A]	–	–	1630 ± 473	1.36	–
GKYDASRHCTDYGHSYEWPYFRSLRRES (domain or fragment, S. pombe, UniProt O74958 95-122, looked up, also called Mmi1 F99A; source: E. coli BL21 (Gold), purified (Ni-chelating resin, size-exclusion chromatography); not shown: SUMO, N-terminal, kept) [SUMO-tagged Mmi1 95-122 F99A]	–	–	996 ± 355	1.38	–
GKYDFSRHCTDYGHSYEWPYFRSLARES (domain or fragment, S. pombe, UniProt O74958 95-122, looked up, also called Mmi1 R119A; source: E. coli BL21 (Gold), purified (Ni-chelating resin, size-exclusion chromatography); not shown: SUMO, N-terminal, kept) [SUMO-tagged Mmi1 95-122 R119A]	–	–	1220 ± 270	1.12	–
GKYDFSRHCTDYGHSAEWPYFRSLRRES (domain or fragment, S. pombe, UniProt O74958 95-122, looked up, also called Mmi1 Y110A; source: E. coli BL21 (Gold), purified (Ni-chelating resin, size-exclusion chromatography); not shown: SUMO, N-terminal, kept) [SUMO-tagged Mmi1 95-122 Y110A]	–	–	15000 ± 2710	1	–
GKYDFSRHCADYGHSYEWPYFRSLRRES (domain or fragment, S. pombe, UniProt O74958 95-122, looked up, also called Mmi1 T104A; source: E. coli BL21 (Gold), purified (Ni-chelating resin, size-exclusion chromatography); not shown: SUMO, N-terminal, kept) [SUMO-tagged Mmi1 95-122 T104A]	–	–	3270 ± 425	1.45	–
